Results as given in patent publication US10350264B2, “Compositions and methods for modulating NCOA4-mediated autophagic targeting of ferritin” (Dana-Farber Cancer Institute, Inc., priority 2014, dated 2019).
Ends that are not written are not given here.

T1: HERC2-FLAG fragment (F3, HERC2 amino acids 1700-2700) (Homo sapiens, UniProt O95714)
T1 construct: HERC2-FLAG fragment (F3, HERC2 amino acids 1700-2700) was produced as described in Bekker-Jensen et al; expressed in transfected cells; host or cells: 293T cells (transient transfection, lysate used)
T1 sequence (O95714 1700-2700): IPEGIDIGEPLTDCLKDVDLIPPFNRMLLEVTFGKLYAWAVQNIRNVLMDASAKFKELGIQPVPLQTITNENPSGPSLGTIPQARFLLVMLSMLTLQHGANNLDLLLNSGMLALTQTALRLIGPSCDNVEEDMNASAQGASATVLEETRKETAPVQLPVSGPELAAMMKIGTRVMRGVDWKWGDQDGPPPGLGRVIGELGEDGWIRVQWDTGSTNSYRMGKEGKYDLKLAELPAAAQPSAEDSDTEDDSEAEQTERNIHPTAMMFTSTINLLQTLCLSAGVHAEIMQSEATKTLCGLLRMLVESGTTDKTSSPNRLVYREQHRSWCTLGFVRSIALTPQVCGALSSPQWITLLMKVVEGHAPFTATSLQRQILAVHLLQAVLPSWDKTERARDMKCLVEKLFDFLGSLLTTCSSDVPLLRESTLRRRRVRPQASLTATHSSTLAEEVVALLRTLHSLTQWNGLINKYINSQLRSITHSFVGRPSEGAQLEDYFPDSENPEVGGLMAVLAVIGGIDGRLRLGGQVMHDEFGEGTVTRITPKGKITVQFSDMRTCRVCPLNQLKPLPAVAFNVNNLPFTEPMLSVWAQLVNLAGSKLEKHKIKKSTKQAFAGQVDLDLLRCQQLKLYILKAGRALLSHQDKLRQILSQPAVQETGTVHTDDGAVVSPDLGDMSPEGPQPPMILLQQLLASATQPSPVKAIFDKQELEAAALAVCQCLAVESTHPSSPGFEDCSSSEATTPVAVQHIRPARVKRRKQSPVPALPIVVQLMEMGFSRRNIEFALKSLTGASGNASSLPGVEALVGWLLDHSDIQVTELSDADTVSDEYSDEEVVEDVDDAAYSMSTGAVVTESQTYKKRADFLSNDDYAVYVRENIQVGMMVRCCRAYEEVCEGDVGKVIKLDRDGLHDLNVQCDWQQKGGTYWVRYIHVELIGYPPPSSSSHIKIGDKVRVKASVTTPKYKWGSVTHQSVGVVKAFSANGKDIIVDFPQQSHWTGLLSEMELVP


Assays:
[1] = system: 8988T cells; assay: NCOA4 protein levels while blocking autophagic flux (immunoblot); assay type: cell-based, human; settings: CQ or BAF 8 hours, FIG. 2(c)
[2] = target: T2, apo-ferritin purified from equine spleen (Equus caballus, UniProt Q8MIP0); assay: GST pull-down assay of ferritin using GST-NCOA4 fragments; assay type: binding; settings: anti-FTH1 immunoblot, FIGS. 7, 8, 11
T2 construct: apo-ferritin purified from equine spleen; purchased Sigma F4503; host or cells: equine spleen
From the text: GST-tagged NCOA4 constructs were also made to probe the interactions of C-terminal portions of NCOA4 with ferritin. NCOA4-truncation constructs were produced using Gateway cloning (Invitrogen, Life Technologies, catalog #11789-013 and 11791-019) into a pDEST60 N-terminal GST fusion plasmid (GST-NCOA4) from EMD Millipore (Gateway Nova pET-60-DEST, product #71851-3) and transformed in E. coli BL21 (DE3) cells (New England Biosciences, C2527I).
NCOA4 truncation constructs were designed based on NCBI reference sequence: NP_001138735.1 (SEQ ID NO: 4). In particular, fragments of SEQ ID NO: 4 consisting of amino acids (aa) 1-245, aa 235-614, aa 235-560, aa 235-401, aa 383-560, aa 545-614, aa 383-522, aa 510-560, aa 383-436, aa 436-485, aa 475-522, aa 475-500, aa 480-500, aa 480-504, aa 485-509, aa 490-514, aa 495-522 were designed. Protein expression in the DE3 cells was induced with 1 mM isopropyl-beta-D-thiogalactopyranoside (IPTG) (Sigma, I6758-10 G) for 3 hours at 37° C. Cells were collected by centrifugation, re-suspended in 25 mM Tris-HCl (pH 7.4), 10% (w/v) sucrose and lysed with a single freeze-thaw cycle followed by sonication. After centrifugation, a GST pull-down assay was performed.
In the GST pull-down assay, lysates were incubated with 10 μl of a 50% (v/v) slurry of glutathione Sepharose 4B beads (GE Healthcare Lifesciences, 17-0756-01) for 30 minutes at 4° C. Beads were washed thoroughly with 150 mM NaCl, 20 mM Tris (pH 7.4), 2 mM dithiothreitol (DTT), 0.5% (w/v) Nonidet P-40, leaving 50-100 μg of GST-fusion protein bound to the beads. Beads were then mixed with 0.5-2 μg of apo-ferritin purified from equine spleen (Sigma F4503) or recombinant human FTH1 or FTL produced in Rosetta E. coli (EMD Millipore, 70953-3). The assay mix was incubated for 2 hours at 4° C., and beads were washed four times with 1 ml wash buffer. Proteins were eluted with SDS sample buffer and analyzed by 4-20% gradient SDS-PAGE and immunoblotting with anti-FTH1 antibody (as above) or anti-FLAG antibody (Sigma, F1804-200 UG). Pounceau stain was used to visualize GST-NCOA4 bands. (Pounceau, Sigma, P7170-1 L, protocol as per product manual).

[3] = target: T1, HERC2-FLAG fragment (F3, HERC2 amino acids 1700-2700); assay: GST pull-down assay of HERC2-FLAG Fragment 3 using GST-NCOA4 fragments; assay type: binding; settings: 293T lysate expressing HERC2-FLAG F3, anti-FLAG immunoblot; FIG. 12
Experimental: To map the interaction of NCOA-4 with HERC2, the GST-NCOA4 truncation constructs described above were also tested in a GST pull-down assay with HERC2-FLAG expressing 293T cell line. HERC2-FLAG fragment (F3, HERC2 amino acids 1700-2700) was produced as described in Bekker-Jensen et al., Nature Cell Biology (2010) 12; 80-86. The HERC2-FLAG F3 was transiently transfected into 293T cells using standard transfection procedures using PEI (Polysciences, #23966-2).
Lysates were obtained, as above, and incubated with 10 μl of a 50% (v/v) slurry of glutathione Sepharose 4B beads for 30 minutes at 4° C. Beads were washed thoroughly with 150 mM NaCl, 20 mM Tris (pH 7.4), 2 mM DTT, 0.5% (w/v) Nonidet P-40, leaving 50-100 μg of GST-fusion protein bound to the beads. Beads were then mixed with 300 μg of lysate from a HERC2-FLAG expressing 293T cell line, as above. The assay mix was incubated for 2 hours at 4° C., and beads were washed four times with 1 ml wash buffer. Proteins were eluted with SDS sample buffer and analyzed by 4-20% gradient SDS-PAGE and immunoblotting with anti-HERC2 antibody or anti-FLAG antibody, as above. Coomassie stain was used to visualize GST-NCOA4 bands as above.

[4] = target: T3, ferritin purified from horse spleen (mixture of FTH1 and FTL subunits) (Equus caballus, UniProt Q8MIP0); assay: anti-MYC immunoprecipitation of in vitro translated MYC-NCOA4 constructs incubated with ferritin; assay type: binding; settings: anti-MYC IP, anti-FTH1 immunoblot, FIG. 5
T3 construct: ferritin purified from horse spleen; purchased Sigma A3641-100 mg; host or cells: horse spleen
Experimental: To probe the interaction between ferritin and NCOA4, initial binding assays using MYC-tagged NCOA4 full-length and truncation constructs produced using an in vitro translation (“IVT”) system were conducted. MYC-NCOA4 fragments were cloned using PCR into a modified T7 cell-free expression vector (pT7CFE1-NMyc, #88863, Thermo Scientific). 1-Step Human Coupled IVT Kit—DNA from Thermo Scientific (product #88881) was used to produce MYC-tagged NCOA4 constructs as described in the product manual. Apoferritin (Sigma, A3641-100 mg) was added in a pull-down assay using anti-c-Myc Agarose Affinity Gel antibody produced in rabbit (Sigma, A7470-1 ML). Affinity purification reactions were washed thoroughly with 150 mM NaCl, 20 mM Tris (pH 7.4), and 2 mM dithiothreitol. Proteins were eluted with SDS sample buffer and analyzed by 4-20% gradient SDS-PAGE and immunoblotting with anti-FTH1 antibody (Cell Signaling 3998; Western blot 1:1,000) or anti-MYC antibody (Santa Cruz Sc-40; western blot 1:1,000).
The full-length, N-terminal (amino acids (aa) 1-245 of SEQ ID NO: 4) and C-terminal (aa 235-614 of SEQ ID NO:4) MYC-NCOA4 were incubated with ferritin purified from horse spleen (Apoferritin (Sigma, A3641-100 mg), consisting of a mixture of FTH1 and FTL subunits) and anti-MYC immunoprecipitation was performed followed by immunoblotting as described above.

T2 sequence (Q8MIP0 whole entry, the tested form may be a part): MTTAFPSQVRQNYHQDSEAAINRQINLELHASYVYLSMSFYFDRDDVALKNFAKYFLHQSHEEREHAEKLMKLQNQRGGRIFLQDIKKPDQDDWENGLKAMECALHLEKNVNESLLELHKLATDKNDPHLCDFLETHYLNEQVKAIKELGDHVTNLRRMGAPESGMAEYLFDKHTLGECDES
T2 sequence (P02791 2-175 partner limits assumed): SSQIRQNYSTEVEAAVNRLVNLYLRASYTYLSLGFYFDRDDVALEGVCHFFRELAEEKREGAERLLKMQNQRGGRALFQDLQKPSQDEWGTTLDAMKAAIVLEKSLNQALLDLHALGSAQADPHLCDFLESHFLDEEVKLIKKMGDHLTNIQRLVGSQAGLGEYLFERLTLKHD
T3 sequence (Q8MIP0 whole entry): as the sequence (Q8MIP0 whole entry, the tested form may be a part) above
T3 sequence (P02791 2-175 partner limits assumed): as the sequence (P02791 2-175 partner limits assumed) above

Row | Molecule | binding of GST-NCOA4 fragment to ferritin [2] | association of MYC-NCOA4 construct with ferritin [4] | further results
1 | CO/C1=C\C(C)=C\[C@@H](C)[C@@H](O)[C@@H](C)C/C(C)=C/C=C/[C@H](OC)[C@@H]([C@@H](C)[C@@H](O)[C@H](C)[C@@]2(O)C[C@@H](O)[C@H](C)[C@@H](C(C)C)O2)OC1=O [Bafilomycin A1 (BAF), Bafilomycin A1] |  |  | NCOA4 protein levels [1]: markedly increased
2 | SFQVIKNSPLSEWLIRPPYKEGSPK (Homo sapien) [aa 485-509] | bound to ferritin |  | 
3 | SMVTEDWLVQNHQDPCKVEEVCRANEPCTSFAECVCDENCEKEALYKWLLKKEG (Homo sapien) [aa 383-436] |  |  | binding of GST-NCOA4 fragment to HERC2-FLAG [3]: bound to HERC2-FLAG
4 | aa 1-614: full-length human NCOA4 (NP_001138735.1), in vitro translated |  | associated with ferritin | association of MYC-NCOA4 construct with ferritin ([4]; listed as Full-length NCOA4): bind to ferritin
5 | aa 555-614: printed as C-terminal MYC-NCOA4; probably only the C-terminal part of NCOA4B ({MYC tag}-GEDKWLLRKKAQEVLLNSPLQEEHNFPPDHYGLPAVCDLFACMQLKVDKEKWLYRTPLQM; cysteine pairing not given here) |  | associated with ferritin | 
6 | N-terminal MYC-NCOA4: NCOA4 N-terminal fragment, amino acids 1-245 of SEQ ID NO: 4 (protein, N-terminal MYC tag; Homo sapien) MNTFQDQSGSSSNREPLLRCSDARRDLELAIGGVLRAEQQIKDNLREVKAQIHSCISRHLECLRSREVWLYEQVDLIYQLKEETLQQQAQQLYSLLGQFNCLTHQLECTQNKDLANQVSVCLERLGSLTLKPEDSTVLLFEADTITLRQTITTFGSLKTIQIPEHLMAHASSANIGPFLEKRGCISMPEQKSASGIVAVPFSEWLLGSKPASGYQAPYIPSTDPQDWLTQKQTLENSQTSSRACN |  | did not associate with ferritin | 
7 | NCOAB: naturally occurring transcript variant of NCOA4 consisting of amino acids 1-238 and 555-614 (protein, left off: small tags and cut ends) MNTFQDQSGSSSNREPLLRCSDARRDLELAIGGVLRAEQQIKDNLREVKAQIHSCISRHLECLRSREVWLYEQVDLIYQLKEETLQQQAQQLYSLLGQFNCLTHQLECTQNKDLANQVSVCLERLGSLTLKPEDSTVLLFEADTITLRQTITTFGSLKTIQIPEHLMAHASSANIGPFLEKRGCISMPEQKSASGIVAVPFSEWLLGSKPASGYQAPYIPSTDPQDWLTQKQTLENSQGEDKWLLRKKAQEVLLNSPLQEEHNFPPDHYGLPAVCDLFACMQLKVDKEKWLYRTPLQM |  | did not bind ferritin | 
8 | aa 235-560: fragment of NCOA4 SEQ ID NO: 4 (protein, Homo sapien) ENSQTSSRACNFFNNVGGNLKGLENWLLKSEKSSYQKCNSHSTTSSFSIEMEKVGDQELPDQDEMDLSDWLVTPQESHKLRKPENGSRETSEKFKLLFQSYNVNDWLVKTDSCTNCQGNQPKGVEIENLGNLKCLNDHLEAKKPLSTPSMVTEDWLVQNHQDPCKVEEVCRANEPCTSFAECVCDENCEKEALYKWLLKKEGKDKNGMPVEPKPEPEKHKDSLNMWLCPRKEVIEQTKAPKAMTPSRIADSFQVIKNSPLSEWLIRPPYKEGSPKEVPGTEDRAGKQKFKSPMNTSWCSFNTADWVLPGKKMGNLSQLSSGEDKWL | bound to ferritin |  | 
9 | aa 383-560: fragment of NCOA4 SEQ ID NO: 4 (protein, Homo sapien) SMVTEDWLVQNHQDPCKVEEVCRANEPCTSFAECVCDENCEKEALYKWLLKKEGKDKNGMPVEPKPEPEKHKDSLNMWLCPRKEVIEQTKAPKAMTPSRIADSFQVIKNSPLSEWLIRPPYKEGSPKEVPGTEDRAGKQKFKSPMNTSWCSFNTADWVLPGKKMGNLSQLSSGEDKWL | bound to ferritin |  | binding of GST-NCOA4 fragment to HERC2-FLAG [3]: binds to HERC2 fragment
